Our source for the Km values is article PMC8939299, “Molecular characterization of a novel GSTO2 of Fasciola hepatica and its roles in modulating murine macrophages” (Parasite, 2022).

This data set relates to O=C1O[C@H]([C@@H](O)CO)C(=O)C1=O. Kind of data set: purified protein. Conditions: 1 mM GSH fixed, DHA 0-0.25 mM (Figure 3 legend: 0-2.5 mM), potassium phosphate, pH 7.5, 25 °C.

Turning to rGSTO2 (Fasciola hepatica), the Km (as a rule, the substrate concentration at which the rate is half of its maximum) was determined as 287 µM.
